Test [1] has as its target human receptor for advanced glycation endproducts (RAGE) on A375-hRAGE cells (human) (UniProt Q15109).
The target of test [2] is extracellular S100A4 secreted by A375 cells (human (endogenous in A375)) (UniProt P26447).
The target in test [3] is extracellular S100A4 secreted by A375-hS100A4 cells (human) (UniProt P26447).
Test [4] concerns the target receptor for advanced glycation endproducts (RAGE) on wild-type A375 cells (human (endogenous in A375)) (UniProt Q15109).

With “extracellular S100A4 secreted by A375 cells (from UniProt P26447 1-101) (natural protein)”, in test [1], the decrease of invasion of A375-hRAGE cells (Boyden chamber with Matrigel) with blocking anti-RAGE antibody (10 μg/ml; R&D), against untreated cells was determined as 15% and the decrease of migration of A375-hRAGE cells (Boyden chamber) with blocking anti-RAGE antibody (10 μg/ml; R&D), against untreated cells is 10%.
“soluble RAGE (sRAGE) (domain or fragment)” registered a relative migration of A375 cells (Boyden chamber) with sRAGE (150 ng/ml), untreated cells set as 100%; blocks extracellular S100A4 from membrane RAGE in test [2] of 63%. Further, in test [3], the decrease of invasion of A375-hS100A4 cells (Boyden chamber with Matrigel) with sRAGE (150 ng/ml), against untreated cells; blocks extracellular S100A4 from membrane RAGE was 15% and the decrease of migration of A375-hS100A4 cells (Boyden chamber) with sRAGE (150 ng/ml), against untreated cells; blocks extracellular S100A4 from membrane RAGE is 24%.
On to “recombinant human S100A4 (from UniProt P26447 1-101) (natural protein)”, for which, in test [4], the increase of invasion of A375 cells (Boyden chamber with Matrigel) with recombinant S100A4 (150 ng/ml), against untreated cells amounted to 21% and the increase of migration of A375 cells (Boyden chamber) with recombinant S100A4 (150 ng/ml), against untreated cells was 36%. For the same substance, in test [1], the increase of invasion of A375-hRAGE cells (Boyden chamber with Matrigel) with recombinant S100A4 (3000 ng/ml), against untreated cells was 13% and the increase of migration of A375-hRAGE cells (Boyden chamber) with recombinant S100A4 (3000 ng/ml), against untreated cells was 23%.

These data come from PMC4831350.
